# Assay: yeast display, Sf9 membrane polyspecificity reagent, FACS + sequencing; frameworks hold sequencing errors
# Outline: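 A nanobody's polyreactivity label depends on the gate it was sorted from. Yeast display cells were stained with 10% biotinylated, detergent-solubilized Sf9 membrane reagent for 1 hour at 4 °C, enriched on streptavidin microbeads and sorted by FACS. The low and high (top ~1%) gates were set on anti-HA fluorescence for expression and streptavidin fluorescence for reagent binding.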
row,Sequence,polyreactivity (PSR sort gate)
1,QVQLVESGVGLVQAGGSLRLSCAPSGFTFGRYAMGWYRQAPGKEREFVASISRSGGSTNYADSVKGRFTISRDNAKNTVYLQMNSLKPEDTAVYYCARDSWLHYRWGYDYWGQGTQVTVSS,high polyreactivity
2,QVQLVESGVGLVQAGGSLRLSSAASGFTFVSNDMGWYRQAPGKERELVAAIRYRGGDTYYADSVKGRFTISRDNAKNTVYLQMNSMKPEDTAVYYCAVDVATYTAGWYYHGYDYWGQGTQVTVSS,low polyreactivity
3,QVQLVESGVGLVQAGGSLRLSSADSGRTSPGNAMGWYRQAPGKETELVAAINVSGGSTYYADSVKGRFTISRDNAKNTVYLQMNSLKPEDTAVYDCATDTGYPYSYDLYDSYYWGQGTQVTVSS,low polyreactivity
4,QVQLVESGVGLVQAGGSLRVSCAASGSICNYYAMVWYRQAPGKERELVATISSGGNTKYADSVKRRFTISRDNAKNTVSLQMNSQKPEDTAVYYCAARWQHSGYRDRYWYDYWGQGTQVTVSS,low polyreactivity
5,QVQLVESGVGLVQAGGSLSLSCAASGRTFAYNAMGWYRQAAGKERELVAAINGDGGSTYYADSVKGRFTISRDNAMNTDYLQMISLKPEDTAVYYCAADLKYDGAYDYWGQGTQVTVSS,high polyreactivity
6,QVQLVESGVGLVQSGGSLRLRCAASGFTFVSYALGWYRQAPGKERELVASISKRGGTTYYADSVKGRFTISRENAKNTVYLQMNSLKPEDTAVYYCNARDTRRYVTYDSGYDYWGQGTQVTVSS,high polyreactivity
7,QVQLVESLVGLVQAVGSLRLSCAAYGFIFAFDSMGCYRHAPRKERELVAAIRTGGSKNYADSVKGRFTISRDNAKTTVYLQMNSLKPEDTAVYNCAANGRVGFWRWERDYWGQGTQVTVSS,high polyreactivity
8,QVQLVESRGGIVQAGGSLRLSCAASGFTFYFYAKGWYRQAPGKERELVAGISRGSRTNYADSVKGRFTISRDNAKNTVYLQMNSLKPEDTAVYYCAAEVSYWGLGTQVTVSS,low polyreactivity
9,QVQLVESRGGKVQAVGSLRLSCAASGLTFYTYAMGWYRQEPGKDRELVAAIRYRGGRSNYADSVKGRFTISRDNANNTVYLQMNSLKPEDTAVYYCAARSILVTQAYGYWGQGTQVNVSS,high polyreactivity
10,QVQLVESRGGLVQAEGSLRLSCAASGYTFTSNDMGWYRQAPGKERELVAAITWSGGTTYYADSVKGRFTISRDNAKNTVYLQMNSLKPEDTSVYYFAADVSLVYPYSYRYYYWGQGTQVTVSS,low polyreactivity
11,QVQLVESRGGLVQAGGRLRLSCAASGSIFDWYAMGWYRQAPGKERELVADITWSGDSTYYADSVKGRFTISRDNAKNTVYLQMNSLKPEDTAVYYCAADIWFNTYYEYDYWGQGTQVTVSS,high polyreactivity
12,QVQLVESRGGLVQAGGSHRLSCAASGITILQYAMGWYRQAPRKERELVAAISRRGGNTYYADSVKGRFTISRDNAKNTVYLQMNSLKPEDTAVYYCAALSSFQSEYDYWGQGTQLTVSS,high polyreactivity
13,QVQLVESRGGLVQAGGSIRLSCAASGITFGSYAMGWYRQAPGKERELVAAIDTSGDDTYYADSVKGRFTISRDNAKNTVYLQMNSLNPEDTAVYYCNAVSTASDEYDYWGQGTQVTVSS,low polyreactivity
14,QVQLVESRGGLVQAGGSLGLSCAASGRIFSGYAMGWYRKAPGKERELVAAISGSGGTTYYADSVKGRFTISRDNAKNTVYLQINSLKPEDTAVYYCAVVIGVGYGYYYWGQGTQVTVSS,low polyreactivity
15,QVQLVESRGGLVQAGGSLRISCAASGNIFLDYVMGWSRQAPGKERELVAAINSGGSTYYADSVKGRFTISSDNAKNTVYLQMNSLKPEDTAVYYCAADDYYKFDYWGQGTQVTVSS,low polyreactivity
16,QVQLVESRGGLVQAGGSLRLSCAASGFIFNYYVMGRYRQAPGKERELVAGITKRGDRTYYADSVKGRFTISRDNAKNTVYLQMNSLKPEDTAVYYCAALARSFANSYGYWGQGTQVTVSS,high polyreactivity
17,QVQLVESRGGLVQAGGSLRLSCAASGFIFSYYAMGWYRQAPGKERELVAAISGLGGSTYYADSVKGRFTISRDNAKNTVYLQMNSLKPEDTAVYYCAATTLRYYRHGDYWGQGTQVTVSS,low polyreactivity
18,QVQLVESRGGLVQAGGSLRLSCAASGFIFVSYTMGWYRQAPGKERDLVATITLSDGSTYYADSVQGRFTISRDNAKNTVYLQMNSLKPEDTAVYSGNKDKVVVRYDYWGQGTQVTVSS,low polyreactivity
19,QVQLVESRGGLVQAGGSLRLSCAASGFIITQYAMGWYRQAPGKERELVAAISGRGGSTYYADSVKGRFTISRDNAKNTVYLQMNSLIPEDTAVYYCNTVRIGPPQDYDYWGQGTQVTVSS,high polyreactivity
20,QVQLVESRGGLVQAGGSLRLSCAASGFTFDIYAMGWYRQAPGKERELVAAINYSGARTYYADSVKGRFTISRDNAKNTVYLQMNSLNPEDTAVYYCNRAARIKYDYWGQGTQVTVSS,high polyreactivity
21,QVQLVESRGGLVQAGGSLRLSCAASGFTFIGYAMGWYRPEPGKERELVAPITQSGGSTFYADSVKGRFTISRENAKNTVYLQMNSLKPEDTAVDDCNAYRKFRYCGQGTQVTVSS,low polyreactivity
22,QVQLVESRGGLVQAGGSLRLSCAASGFTFSWYAMGWYRQAPGKERELVAAITRSGGSTNYADSVKGRFTMSRDNAKNTVYLQMNSLKPEDTAVYYCAARYSPGFGYWGKGTQVTVSS,high polyreactivity

row,Sequence,polyreactivity (PSR sort gate)
1,QVQLVESRGGLVQAGGSLRLSCAASGITSRFYVMGWYRKAPGKERELVAAISTRGTSTYYADSVKGRFTLSRDNAKNTVYLQMNSLKPEDTAVYYCAAVGGYPYQYPYGSWGQGTQVTVSS,high polyreactivity
2,QVQLVESRGGLVQAGGSLRLSCAASGPTFLINAMGCYRQAPGKETELVAEITGRGSSTYYADSVKGRFTISRDNAINTVYLQMNSLKAEDTAVYYCNAVLRKMTYDYWGQGTQVTVSS,high polyreactivity
3,QVQLVESRGGLVQAGGSLRLSCAASGRIFVVYTMGWYRQAPGKERELVAAISWRGGTTYYADSVKRRFTISRDNAKTTVYLQMTSLIPEDTAVSYCATREWSPRGSYDYSGQGTQVTVSS,high polyreactivity
4,QVQLVESRGGLVQAGGSLRLSCAASGRTFTLNAMGWYRQAPGKERELVARIDWRGITYADSVKGRFTISRDNAKNTVYLQMNSLKPEDTAVYYCAADYVQGFGFYYQWHYDYWGQGTQVTVSS,low polyreactivity
5,QVQLVESRGGLVQAGGSLRLSCAASGSIFYSNFMGWYRPAPGKERELVARITDAGSTNYADSVKGRFTISRDNAKNTVYLQMNSQKPEDTAVYYCNARLVIYTYDYWGQGTQVTVSS,low polyreactivity
6,QVQLVESRGGLVQAGGSLRLSCAASGSTFSANTMGWNRQAPGKERELVAGITNTGDTYYADSVKGRFTLSRDNAKNTVYLQMNSLKPEDTAVYYCAADSWRLTDGAYWSTVYYWGQGNQVTVSS,low polyreactivity
7,QVQLVESRGGLVQAGGSLRLSCAASGSTFYFYDMGLYRQAPGKERELVGAISSSGGDTYYADSVKGRFTISRDNAKNTVYLQMNSLKPEDTAVYYCAAGQLYSGYEYWGQGTQVTVSS,low polyreactivity
8,QVQLVESRGGLVQAGGSLRLSCAAYGFTFPNNAMGWNRQAPGKERELVAAITWSGRSTYADSVKGRFTISRDNAKNTVYLQMNSLKPEDTAVDYCYTRGTYLSKTLPSAYDYWGQGTQVIVSS,low polyreactivity
9,QVQLVESRGGLVQAGGSLRLSCADSGRIFWYYDMGCYRQAPWKDRELVAAITSGGRTYYADYVKGRFTISRDNAKNTVYLQMNSLKPEDTAVYYCAAEGFYTSGSPYSGGLDYWGQGTQVTVSS,low polyreactivity
10,QVQLVESRGGLVQAGGSLRLSCAPSGSTFHYYAMGWYRQAQGKERELDAAISDRDGGTFYADSVKGRFTISRDNATNTVYLQINSLKPEDTAVYYCYARKRGARFILGYDYWGQGPQVTVSS,low polyreactivity
11,QVQLVESRGGLVQAGGSLRLSFGASGRTFRWYAMVWYRQAPGKERELVAAITYSVGSTYYADSVKGRFTISRDNAKNTVYLQMNSLKPEDSAVYSCAADSYPYRYRGKYSRLDYWGQGTQVTVSS,low polyreactivity
12,QVQLVESRGGLVQAGGSLRLSSAASGLTLYGYTMGWYRQAPGKERELVATMTSGRDSTYYADSVKGRFTISGDNAKNTFYLEMHCLKPEDTAVYYCGAPYAGWRDGGDYWGQGTQVTVSS,low polyreactivity
13,QVQLVESRGGLVQAGGTLRLSCAPSGLTSYGNTRGWDIPAPGKERELVAAISKRGTSTYYADSVKGRFTISRDNAMNTVYLQMNSLKPEDTAVYYCAAAYRGREVEYISWGQGTQVTVSS,high polyreactivity
14,QVQLVESRGGVVQAGGSLRLSSDDSGFTFYYYAMGWYRQAPGKERQLVAPITKSGGSTYYADSVKWRFTISRDNSKNSLYVKFNRLKPEDTAVYYCNKVTYSSDQYFGGDGYFWGQGTQVTVTS,high polyreactivity
15,QVQLVESRGRLDQAGGSLRLSCAAYARIFAVYAMGWYRQAPGKESEFVATITYNAGSTYYADSVKGRFTISRDNAKNTVNLQMNSLKPEDTAVYYCAVELDSEPAYEPWTEYDYWGQGTQVTVSS,low polyreactivity
16,QVQLVESRGRLVQAGGSLRLSCAASGITFYVYTMGWYRQAPGKERELVAAINGSGGSTNYADSVKGRFTISRDNAKNSVYLHMNSLKTEDTAVYYCAADWSLRLYDYWGQGTQVTVSS,low polyreactivity
17,QVQLVESRGVLVQAGGSLRLSCAASGFTFDYNAMGWYRQAPGKERELVAVISSSGSRTYYADSVKGRFTISRDNAKNTVYLQMNSLKPVDTAVYYCARDNWQWYPSTWYDYWGQGTQVTVSS,high polyreactivity
18,QVQLVESRGVLVQAGGSLRLSCAASGLTFGGNAKGWYRQAPGKERELVAAISWSDDTTDYADSVKGRFTISRDNAKNTVYLQMNSLKPEDTAVYYCAARLPFEHVDYWGQGTQVTVSS,low polyreactivity
19,QVQLVESRGVLVQAGGSLRLSCAASGSIFEWYAMGWYRQAPGKERELVAVISDGSTNYADSVKGRFTISRDNAKKTVYLQMNSLKPEDPAVSYCAADPFDGYSSSEYDYWGQGTQVTVSS,low polyreactivity
20,QVQLVESRRGLVQAGGSLRLSCASSGFTVCWYAMGLYRPAPGTERELVAAISSGGSTNYADSVKGRFTISRDNAKNTVYFQMNSLKPEDTAVYYCARRLWYSDRYSARWQYDYWGQGTQVTVSS,high polyreactivity
21,QVQLVESVGCLVQPGGSLRLSCATSGSIFLLYARGWYRQPPGKERELVAAITSSGGSTNYADSVKGRITISRDTAKNTVYLQMNSLKPEDTEVYYSATAPYAYTILGSRFDYWGKGTQVTVSS,low polyreactivity
